# B1: Sal1: anti-staphylococcal lysin, SEQ ID NO:5 (protein)
# chain: MAKTQAEINKRLDAYAKGTVDSPYRIKKATSYDPSFGVMEAGAIDADGYYHAQCQDLITDYVLWLTDNKVRTWGNAKDQIKQSYGTGFKIHENKPSTVPKKGWIAVFTSGSYQQWGHIGIVYDGGNTSTFTILEQNWNGYANKKPTKRVDNYYGLTHFIEIPVKAGTTVKKETAKKSASKTPAPKKKATLKVSKNHINYTMDKRGKKPEGMVIHNDAGRSSGQQYENSLANAGYARYANGIAHYYGSEGYVWEAIDAKNQIAWHTGDGTGANSGNFRFAGIEVCQSMSASDAQFLKNEQAVFQFTAEKFKEWGLTPNRKTVRLHMEFVPTACPHRSMVLHTGFNPVTQGRPSQAIMNKLKDYFIKQIKNYMDKGTSSSTVVKDGKTSSASTPATRPVTGSWKKNQYGTWYKPENATFVNGNQPIVTRIGSPFLNAPVGGNLPAGATIVYDEVCIQAGHIWIGYNAYNGNRVYCPVRTCQGVPPNHIPGVAWGVFK
# modifications: Staphylococcus
# B2: Lactoferrin (Human milk): lactoferrin, human milk (Sigma-Aldrich) (protein, UniProt P02788 20-710, looked up)
# Lactotransferrin: GRRRSVQWCAVSQPEATKCFQWQRNMRKVRGPPVSCIKRDSPIQCIQAIAENRADAVTLDGGFIYEAGLAPYKLRPVAAEVYGTERQPRTHYYAVAVVKKGGSFQLNELQGLKSCHTGLRRTAGWNVPIGTLRPFLNWTGPPEPIEAAVARFFSASCVPGADKGQFPNLCRLCAGTGENKCAFSSQEPYFSYSGAFKCLRDGAGDVAFIRESTVFEDLSDEAERDEYELLCPDNTRKPVDKFKDCHLARVPSHAVVARSVNGKEDAIWNLLRQAQEKFGKDKSPKFQLFGSPSGQKDLLFKDSAIGFSRVPPRIDSGLYLGSGYFTAIQNLRKSEEEVAARRARVVWCAVGEQELRKCNQWSGLSEGSVTCSSASTTEDCIALVLKGEADAMSLDGGYVYTAGKCGLVPVLAENYKSQQSSDPDPNCVDRPVEGYLAVAVVRRSDTSLTWNSVKGKKSCHTAVDRTAGWNIPMGLLFNQTGSCKFDEYFSQSCAPGSDPRSNLCALCIGDEQGENKCVPNSNERYYGYTGAFRCLAENAGDVAFVKDVTVLQNTDGNNNEAWAKDLKLADFALLCLDGKRKPVTEARSCHLAMAPNHAVVSRMDKVERLKQVLLHQQAKFGRNGSDCPDKFCLFQSETKNLLFNDNTECLARLHGKTTYEKYLGPQYVAGITNLKKCSTSPLLEACEFLRK
# B3: CF-301^RHD: rhodamine-labeled PlySs2 (CF-301) (conjugate)
# chain: MTTVNEALNNVRAQVGSGVSVGNGECYALASWYERMISPDATVGLGAGVGWVSGAIGDTISAKNIGSSYNWQANGWTVSTSGPFKAGQIVTLGATPGNPYGHVVIVEAVDGDRLTILEQNYGGKRYPVRNYYSAASYRQQVVHYITPPGTVAQSAPNLAGSRSYRETGTMTVTVDALNVRRAPNTSGEIVAVYKRGESFDYDTVIIDVNGYVWVSYIGGSGKRNYVATGATKDGKRFGNAWGTFK
# B4: Lactoferrin (Bovine colostrum): lactoferrin, bovine colostrum (Sigma-Aldrich) (protein, UniProt P24627 20-708, looked up)
# Lactotransferrin: APRKNVRWCTISQPEWFKCRRWQWRMKKLGAPSITCVRRAFALECIRAIAEKKADAVTLDGGMVFEAGRDPYKLRPVAAEIYGTKESPQTHYYAVAVVKKGSNFQLDQLQGRKSCHTGLGRSAGWIIPMGILRPYLSWTESLEPLQGAVAKFFSASCVPCIDRQAYPNLCQLCKGEGENQCACSSREPYFGYSGAFKCLQDGAGDVAFVKETTVFENLPEKADRDQYELLCLNNSRAPVDAFKECHLAQVPSHAVVARSVDGKEDLIWKLLSKAQEKFGKNKSRSFQLFGSPPGQRDLLFKDSALGFLRIPSKVDSALYLGSRYLTTLKNLRETAEEVKARYTRVVWCAVGPEEQKKCQQWSQQSGQNVTCATASTTDDCIVLVLKGEADALNLDGGYIYTAGKCGLVPVLAENRKSSKHSSLDCVLRPTEGYLAVAVVKKANEGLTWNSLKDKKSCHTAVDRTAGWNIPMGLIVNQTGSCAFDEFFSQSCAPGADPKSRLCALCAGDDQGLDKCVPNSKEKYYGYTGAFRCLAEDVGDVAFVKNDTVWENTNGESTADWAKNLNREDFRLLCLDGTRKPVTEAQSCHLAVAPNHAVVSRSDRAAHVKQVLLHQQALFGKNGKNCPDKFCLFKSETKNLLFNDNTECLAKLGGRPTYEEYLGTEYVTAIANLKKCSTSPLLEACAFLTR
# B5: Lysozyme (Human, recombinant): human lysozyme, recombinant expressed in rice (protein, UniProt P61626 19-148, looked up)
# Lysozyme C: KVFERCELARTLKRLGMDGYRGISLANWMCLAKWESGYNTRATNYNAGDRSTDYGIFQINSRYWCNDGKTPGAVNACHLSCSALLQDNIADAVACAKRVVRDPQGIRAWVAWRNRCQNRDVRQYVQGCGV
# B6: Lysozyme (Human neutrophil derived): lysozyme, human neutrophil-derived (protein, UniProt P61626 19-148, looked up)
# Lysozyme C: B5 Lysozyme C
# B7: ClyS: chimeric lysin active against Staphylococci, without SH3-type binding domain; SEQ ID NO:4 (protein)
# chain: METLKQAESYIKSKVNTGTDFDGLYGYQCMDLAVDYIYHVTDGKIRMWGNAKDAINNSFGGTATVYKNYPAFRPKYGDVVVWTTGNFATYGHIAIVTNPDPYGDLQYVTVLEQNWNGNGIYKTELATIRTHDYTGITHFIRPNFATESSVKKKDTKKKPKPSNRDGLNKDKIVYDRTNINYNMVLQGKSASKITVGSKAPYNLKWSKGAYFNAKIDGLGATSATRYGDNRTNYRFDVGQAVYAPGTLIYVFEIIDGWCRIYWNNHNEWIWHERLIVKEVF
# modifications: Staphlyococcus
# B8: Serum albumin (Rat, from serum): rat serum albumin (protein, UniProt P02770 25-608, looked up)
# Albumin: EAHKSEIAHRFKDLGEQHFKGLVLIAFSQYLQKCPYEEHIKLVQEVTDFAKTCVADENAENCDKSIHTLFGDKLCAIPKLRDNYGELADCCAKQEPERNECFLQHKDDNPNLPPFQRPEAEAMCTSFQENPTSFLGHYLHEVARRHPYFYAPELLYYAEKYNEVLTQCCTESDKAACLTPKLDAVKEKALVAAVRQRMKCSSMQRFGERAFKAWAVARMSQRFPNAEFAEITKLATDVTKINKECCHGDLLECADDRAELAKYMCENQATISSKLQACCDKPVLQKSQCLAEIEHDNIPADLPSIAADFVEDKEVCKNYAEAKDVFLGTFLYEYSRRHPDYSVSLLLRLAKKYEATLEKCCAEGDPPACYGTVLAEFQPLVEEPKNLVKTNCELYEKLGEYGFQNAVLVRYTQKAPQVSTPTLVEAARNLGRVGTKCCTLPEAQRLPCVEDYLSAILNRLCVLHEKTPVSEKVTKCCSGSLVERRPCFSALTVDETYVPKEFKAETFTFHSDICTLPDKEKQIKKQTALAELVKHKPKATEDQLKTVMGDFAQFVDKCCKAADKDNCFATEGPNLVARSKEALA
# Experiments:
# [1] = test system: S. aureus (strain not given); test: MIC analysis of various lysins, chimeric lysins and antibiotics in MHB and human serum; format: cell-based; conditions: Table 14 (Example 2); for Fold decrease in MIC: human serum vs MHB
# Experimental: To further evaluate the binding domain relevance to the serum component effect, various chimerics were constructed by replacing or swapping out one binding domain for another. Chimeric lysins having the Sal1 CHAP catalytic domain with ClyS binding domain, PlySs2 (CF-301) binding domain, or lysostaphin binding domain were assayed for MIC using MHB versus human serum. the results are depicted below in TABLE 14.
# [2] = test system: S. aureus (strain not given); test: as above; format: cell-based; conditions: Table 2; for Fold decrease in MIC: human serum vs MHB
# [3] = test system: staphylococci (strain not given); test: Checkerboard analysis of PlySs2/CF-301 with AMPs, antimicrobial proteins and albumins in heat-inactivated human serum; format: cell-based, S. aureus; conditions: in combination with PlySs2/CF-301
# [4] = test system: S. aureus strain ATCC 700699; test: Confocal/deconvolution microscopy of cell surface binding; conditions: 0.25×MIC
# S. aureus strain MW2 = test: Fluorescence microscopy of binding after preincubation in different serum types; conditions: 0.25×MIC
# Experimental: The effect of preincubation of staphylococci with multiple different serum types and MHB on subsequent labeling with a 0.25×MIC amount of CF-301^RHD was also examined by fluorescence microscopy (FIG. 11).
# Fluorescence microscopy: Binding of PlySs2 (CF-301) to the Bacterial Cell Surface in Different Serum Environments. Mid-log phase MRSA strain MW2 was suspended at 1×10^7 CFU/mL in either CAMHB or 100% serum from either human (Sigma-Aldrich), rabbit (Gibco), rat (BioreclamationIVT), or mouse (BioreclamationIVT) sources and incubated for 30 minutes at 37° C. An additional mouse serum sample was also tested, containing 40 mg/mL HSA (Albumin Biosciences). After the preincubation, bacteria were washed with 1× phosphate-buffered saline (PBS) and resuspended in 50 μl of PBS and attached to the surface of a poly-L-lysine-coated cover glass. The cells were washed and treated with CF-301^RHOD (2 μg/mL in PBS) for 10 minutes before washing and counterstaining with DAPI. Slides were mounted in 50% glycerol and 0.1% p-phenylenediamine in PBS, pH 8. Fluorescence microscopy was performed using a Nikon Eclipse E400 microscope, equipped with a Nikon 100×/1.25 oil immersion lens, and a Retiga EXi fast 1394 camera (QImaging). QCapture Pro version 5.1.1.14 software (QImaging) was used for image capture and processing.
molecule,measurement,setting,value
B1,"Minimal inhibitory concentration, MHB",[1],2 µg/mL
same,Fold decrease in MIC,[1],32
same,"Minimal inhibitory concentration, Human serum",[1],0.06 µg/mL
same,"Minimal inhibitory concentration, MHB",[2],2 µg/mL
same,Fold decrease in MIC,[2],32
same,"Minimal inhibitory concentration, Human serum",[2],0.06 µg/mL
B2,ΣFICavg,[3],≥1.16
B3,labeling of the staphylococcal cell wall,[4]; absence of the HSA pretreatment,no labeling was observed
same,labeling of the staphylococcal cell wall,[4]; cells pretreated with HSA at 40 mg/mL,extensive labeling
same,labeling of S. aureus strain MW2,S. aureus strain MW2; mouse serum supplemented with HSA,restore high-level binding and fluorescence
same,labeling of S. aureus strain MW2,S. aureus strain MW2; preincubation with human serum or rabbit serum,extensive labeling
same,labeling of S. aureus strain MW2,"S. aureus strain MW2; preincubation with rat serum, mouse serum or MHB alone",poorly labeled cells
B4,ΣFICavg,[3],≥1.16
B5,ΣFICavg,[3],≤0.05
B6,ΣFICavg,[3],≤0.056
B7,"Minimal inhibitory concentration, MHB",[1],8 µg/mL
same,Fold decrease in MIC,[1],2
same,"Minimal inhibitory concentration, Human serum",[1],4 µg/mL
same,"Minimal inhibitory concentration, MHB",[2],8 µg/mL
same,Fold decrease in MIC,[2],2
same,"Minimal inhibitory concentration, Human serum",[2],4 µg/mL
B8,ΣFICavg,[3],≥1.16
